The record followed here is the supplement of paper PMC9112550, “Optimization of the antimicrobial peptide Bac7 by deep mutational scanning” (BMC Biology, 2022).

This series deals with Escherichia coli TOP10. The series is described as follows: shrunken log2 fold change of peptide-encoding DNA abundance (4.5 h post-induction vs induction); higher = less antimicrobial activity (less host growth inhibition). The conditions noted are these: time post-induction: 4.5 h; library: site-saturation at positions 5, 18, 19, 20.
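Note: peptides expressed intracellularly from a pBAD plasmid library in pooled LB shake-flask culture, induced with 0.3% L-arabinose, DNA abundance read by NGS, three biological replicates, DESeq2 with apeglm shrinkage.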

As for RRIRSRPPRLPRPRPRPNWRPRP, the “shrunken log2 fold change” value was found to be 0.266.

As to RRIRMRPPRLPRPRPRPARLPRP, the “shrunken log2 fold change” value amounted to 0.201.

Take RRIRSRPPRLPRPRPRPMWNPRP: the “shrunken log2 fold change” value was -0.204.

As to RRIRHRPPRLPRPRPRPLDEPRP, the “shrunken log2 fold change” value is -0.0217.

Turning to RRIRYRPPRLPRPRPRPGMEPRP, the “shrunken log2 fold change” value is -0.0379.

Consider RRIRTRPPRLPRPRPRPYAFPRP, for which the “shrunken log2 fold change” value is -0.17.

Regarding RRIRDRPPRLPRPRPRPFNNPRP, the “shrunken log2 fold change” value is -0.226.

With RRIRERPPRLPRPRPRPKKSPRP, the “shrunken log2 fold change” value was -0.182.

RRIRPRPPRLPRPRPRPCCQPRP: the “shrunken log2 fold change” value is -0.516.

On to RRIRVRPPRLPRPRPRPDKEPRP, for which the “shrunken log2 fold change” value is 0.000945.

As to RRIRGRPPRLPRPRPRPHYGPRP, the “shrunken log2 fold change” value is -0.627.

Regarding RRIRYRPPRLPRPRPRPQQLPRP, the “shrunken log2 fold change” value was -0.181.

As to RRIRRRPPRLPRPRPRPPNFPRP, the “shrunken log2 fold change” value was 0.0782.

On to RRIRVRPPRLPRPRPRPSMLPRP, for which the “shrunken log2 fold change” value was -0.395.

Turning to RRIRHRPPRLPRPRPRPKDGPRP, the “shrunken log2 fold change” value was 0.326.

As to RRIRVRPPRLPRPRPRPAKGPRP, the “shrunken log2 fold change” value was -0.283.

Turning to RRIRTRPPRLPRPRPRPEHGPRP, the “shrunken log2 fold change” value was 0.0391.

For the sequence RRIRKRPPRLPRPRPRPWGSPRP, the “shrunken log2 fold change” value was -0.034.

With RRIRTRPPRLPRPRPRPSLSPRP, the “shrunken log2 fold change” value was 0.00222.

Consider RRIRMRPPRLPRPRPRPSRWPRP, for which the “shrunken log2 fold change” value came out at 1.

RRIRYRPPRLPRPRPRPWIIPRP: the “shrunken log2 fold change” value is -0.384.

As for RRIRYRPPRLPRPRPRPIVNPRP, the “shrunken log2 fold change” value is -0.558.

Consider RRIRWRPPRLPRPRPRPSWGPRP, for which the “shrunken log2 fold change” value turned out to be 0.121.

Consider RRIRNRPPRLPRPRPRPITFPRP, for which the “shrunken log2 fold change” value was -0.0674.

Consider RRIRYRPPRLPRPRPRPLYDPRP, for which the “shrunken log2 fold change” value is -0.51.

On to RRIRLRPPRLPRPRPRPCMLPRP, for which the “shrunken log2 fold change” value was -0.398.

As for RRIRARPPRLPRPRPRPPLYPRP, the “shrunken log2 fold change” value turned out to be 0.606.

Take RRIRRRPPRLPRPRPRPTHTPRP: the “shrunken log2 fold change” value came to 0.66.

As to RRIRWRPPRLPRPRPRPFCGPRP, the “shrunken log2 fold change” value worked out at 0.437.

For RRIRWRPPRLPRPRPRPAWVPRP, the “shrunken log2 fold change” value is 0.378.

Consider RRIRIRPPRLPRPRPRPGTWPRP, for which the “shrunken log2 fold change” value was -0.475.

Turning to RRIRIRPPRLPRPRPRPGLYPRP, the “shrunken log2 fold change” value was -0.0503.

For the sequence RRIRGRPPRLPRPRPRPIVTPRP, the “shrunken log2 fold change” value turned out to be 0.583.

In the case of RRIRIRPPRLPRPRPRPAWDPRP, the “shrunken log2 fold change” value was -0.0871.

As to RRIRKRPPRLPRPRPRPMQAPRP, the “shrunken log2 fold change” value is 1.15.

Turning to RRIRVRPPRLPRPRPRPEKCPRP, the “shrunken log2 fold change” value is 0.0903.

RRIRRRPPRLPRPRPRPLDLPRP: the “shrunken log2 fold change” value was -0.158.

For the sequence RRIRCRPPRLPRPRPRPQAGPRP, the “shrunken log2 fold change” value came to 0.109.

Regarding RRIRGRPPRLPRPRPRPGRMPRP, the “shrunken log2 fold change” value came to 0.727.

On to RRIRKRPPRLPRPRPRPCEDPRP, for which the “shrunken log2 fold change” value turned out to be 0.563.

For the sequence RRIRGRPPRLPRPRPRPHPMPRP, the “shrunken log2 fold change” value was 0.497.

On to RRIRFRPPRLPRPRPRPKDLPRP, for which the “shrunken log2 fold change” value was 0.0796.

Turning to RRIRSRPPRLPRPRPRPHHEPRP, the “shrunken log2 fold change” value was -0.0237.

For the sequence RRIRMRPPRLPRPRPRPAWKPRP, the “shrunken log2 fold change” value turned out to be 0.14.

In the case of RRIRRRPPRLPRPRPRPPVTPRP, the “shrunken log2 fold change” value was found to be 0.538.

Consider RRIRERPPRLPRPRPRPNLTPRP, for which the “shrunken log2 fold change” value was -0.171.

As to RRIRFRPPRLPRPRPRPVECPRP, the “shrunken log2 fold change” value was -0.17.

RRIRTRPPRLPRPRPRPCQEPRP: the “shrunken log2 fold change” value was -0.0218.

As for RRIRGRPPRLPRPRPRPATVPRP, the “shrunken log2 fold change” value was determined as 0.244.

Take RRIRKRPPRLPRPRPRPPNWPRP: the “shrunken log2 fold change” value stood at 0.593.

As for RRIRHRPPRLPRPRPRPFYTPRP, the “shrunken log2 fold change” value is -1.02.

Consider RRIRVRPPRLPRPRPRPFICPRP, for which the “shrunken log2 fold change” value is -0.331.

On to RRIRWRPPRLPRPRPRPFEGPRP, for which the “shrunken log2 fold change” value was -0.0062.

Regarding RRIRIRPPRLPRPRPRPQCGPRP, the “shrunken log2 fold change” value worked out at 0.0719.

Take RRIRWRPPRLPRPRPRPLNDPRP: the “shrunken log2 fold change” value was -0.281.

Take RRIRDRPPRLPRPRPRPEHLPRP: the “shrunken log2 fold change” value is -0.00213.

On to RRIRTRPPRLPRPRPRPFRNPRP, for which the “shrunken log2 fold change” value was 0.0337.

Turning to RRIRPRPPRLPRPRPRPFQMPRP, the “shrunken log2 fold change” value is -0.0867.

As to RRIRHRPPRLPRPRPRPAAFPRP, the “shrunken log2 fold change” value was 0.068.

For the sequence RRIRNRPPRLPRPRPRPFTCPRP, the “shrunken log2 fold change” value is -0.215.

With RRIRWRPPRLPRPRPRPVRPPRP, the “shrunken log2 fold change” value came to 0.305.

Consider RRIRFRPPRLPRPRPRPMYCPRP, for which the “shrunken log2 fold change” value was -0.541.

As for RRIRGRPPRLPRPRPRPWGPPRP, the “shrunken log2 fold change” value amounted to 0.427.

As for RRIRGRPPRLPRPRPRPRPEPRP, the “shrunken log2 fold change” value came out at 0.667.

Turning to RRIRGRPPRLPRPRPRPTHFPRP, the “shrunken log2 fold change” value was 0.71.

Take RRIRCRPPRLPRPRPRPLVRPRP: the “shrunken log2 fold change” value was 0.0749.

As for RRIRDRPPRLPRPRPRPRMVPRP, the “shrunken log2 fold change” value was -0.177.

With RRIRGRPPRLPRPRPRPGQSPRP, the “shrunken log2 fold change” value was -0.00151.

As to RRIRTRPPRLPRPRPRPIMHPRP, the “shrunken log2 fold change” value was -0.176.

Regarding RRIRRRPPRLPRPRPRPFKFPRP, the “shrunken log2 fold change” value was -0.0354.

For the sequence RRIRTRPPRLPRPRPRPYTMPRP, the “shrunken log2 fold change” value was -0.232.

With RRIRNRPPRLPRPRPRPAQFPRP, the “shrunken log2 fold change” value came to 0.0855.

Take RRIRDRPPRLPRPRPRPVSEPRP: the “shrunken log2 fold change” value stood at 0.514.

For RRIRLRPPRLPRPRPRPVVGPRP, the “shrunken log2 fold change” value was 0.103.

For RRIRWRPPRLPRPRPRPHFNPRP, the “shrunken log2 fold change” value was -0.333.

RRIRPRPPRLPRPRPRPLKWPRP: the “shrunken log2 fold change” value was determined as 0.398.

Turning to RRIRHRPPRLPRPRPRPTLSPRP, the “shrunken log2 fold change” value is -0.17.

As for RRIRDRPPRLPRPRPRPPGIPRP, the “shrunken log2 fold change” value stood at 0.233.

For RRIRTRPPRLPRPRPRPNHEPRP, the “shrunken log2 fold change” value was -0.143.

In the case of RRIRVRPPRLPRPRPRPDQIPRP, the “shrunken log2 fold change” value is -0.0895.

RRIRTRPPRLPRPRPRPATGPRP: the “shrunken log2 fold change” value is -0.123.

With RRIRARPPRLPRPRPRPAMCPRP, the “shrunken log2 fold change” value came out at 0.303.

As for RRIRTRPPRLPRPRPRPMTHPRP, the “shrunken log2 fold change” value was -0.633.

Take RRIRERPPRLPRPRPRPHDVPRP: the “shrunken log2 fold change” value was 0.00785.

Take RRIRWRPPRLPRPRPRPYELPRP: the “shrunken log2 fold change” value is -0.0904.

With RRIRRRPPRLPRPRPRPKWEPRP, the “shrunken log2 fold change” value is 0.364.

Take RRIRTRPPRLPRPRPRPSEFPRP: the “shrunken log2 fold change” value was -0.369.

Take RRIRPRPPRLPRPRPRPIARPRP: the “shrunken log2 fold change” value was -0.0116.

As to RRIRWRPPRLPRPRPRPQLAPRP, the “shrunken log2 fold change” value amounted to 0.351.

As for RRIRARPPRLPRPRPRPNQVPRP, the “shrunken log2 fold change” value is -0.0439.

Turning to RRIRPRPPRLPRPRPRPLVPPRP, the “shrunken log2 fold change” value worked out at 0.125.

With RRIRQRPPRLPRPRPRPRTQPRP, the “shrunken log2 fold change” value turned out to be 0.0198.

In the case of RRIRKRPPRLPRPRPRPDSHPRP, the “shrunken log2 fold change” value is -0.427.

For RRIRERPPRLPRPRPRPSWHPRP, the “shrunken log2 fold change” value is -0.215.

On to RRIRYRPPRLPRPRPRPQLRPRP, for which the “shrunken log2 fold change” value is -0.193.

Take RRIRERPPRLPRPRPRPIRIPRP: the “shrunken log2 fold change” value was -0.00822.

Regarding RRIRLRPPRLPRPRPRPASQPRP, the “shrunken log2 fold change” value is -0.18.

RRIRSRPPRLPRPRPRPTKTPRP: the “shrunken log2 fold change” value is -0.0829.

Regarding RRIRIRPPRLPRPRPRPICPPRP, the “shrunken log2 fold change” value stood at 0.0188.

For RRIRKRPPRLPRPRPRPFWHPRP, the “shrunken log2 fold change” value worked out at 0.00192.

On to RRIRKRPPRLPRPRPRPWCGPRP, for which the “shrunken log2 fold change” value worked out at 0.153.

As for RRIRTRPPRLPRPRPRPVEQPRP, the “shrunken log2 fold change” value worked out at 0.112.

With RRIRCRPPRLPRPRPRPDVTPRP, the “shrunken log2 fold change” value was determined as 0.0172.

Regarding RRIRLRPPRLPRPRPRPGKPPRP, the “shrunken log2 fold change” value is -0.0724.

Regarding RRIRCRPPRLPRPRPRPCWFPRP, the “shrunken log2 fold change” value is -0.386.

Turning to RRIRGRPPRLPRPRPRPMRNPRP, the “shrunken log2 fold change” value was 1.09.

For RRIRGRPPRLPRPRPRPNGDPRP, the “shrunken log2 fold change” value was 0.115.

With RRIRHRPPRLPRPRPRPWCRPRP, the “shrunken log2 fold change” value was -0.352.

For the sequence RRIRLRPPRLPRPRPRPDGSPRP, the “shrunken log2 fold change” value turned out to be 0.0129.

For the sequence RRIRDRPPRLPRPRPRPYGSPRP, the “shrunken log2 fold change” value was -0.0409.

For the sequence RRIRHRPPRLPRPRPRPSLQPRP, the “shrunken log2 fold change” value is -0.0974.

On to RRIRFRPPRLPRPRPRPKNNPRP, for which the “shrunken log2 fold change” value is -0.504.

Consider RRIRHRPPRLPRPRPRPHGWPRP, for which the “shrunken log2 fold change” value is 0.0177.

As for RRIRWRPPRLPRPRPRPIDWPRP, the “shrunken log2 fold change” value came to 0.45.

With RRIRTRPPRLPRPRPRPLNSPRP, the “shrunken log2 fold change” value is -0.347.

RRIRWRPPRLPRPRPRPCGAPRP: the “shrunken log2 fold change” value was found to be 0.525.

For RRIRWRPPRLPRPRPRPQLDPRP, the “shrunken log2 fold change” value amounted to 0.0393.

On to RRIRLRPPRLPRPRPRPYLVPRP, for which the “shrunken log2 fold change” value is -1.06.

With RRIRSRPPRLPRPRPRPALDPRP, the “shrunken log2 fold change” value is 0.137.

Regarding RRIRPRPPRLPRPRPRPLAQPRP, the “shrunken log2 fold change” value worked out at 0.192.

For RRIRKRPPRLPRPRPRPTPIPRP, the “shrunken log2 fold change” value amounted to 0.639.

With RRIRARPPRLPRPRPRPDILPRP, the “shrunken log2 fold change” value amounted to 0.0584.

On to RRIRHRPPRLPRPRPRPAPCPRP, for which the “shrunken log2 fold change” value was determined as 0.288.

On to RRIRKRPPRLPRPRPRPHVSPRP, for which the “shrunken log2 fold change” value is -0.00259.

For RRIRVRPPRLPRPRPRPANFPRP, the “shrunken log2 fold change” value amounted to 0.0908.
